Results taken from the supplement of paper PMC9170038.

system: MS2 coat protein; experiment: apparent KD of MS2 coat protein, switch ON state; designed switch direction (-1 OFF switch, 1 ON switch): 1; higher = weaker reporter binding; details: FMN input: 0 or 200 uM; Eterna round: R93 (includes R88 designs)
Outline: (§1)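 Binding of SNAP-549-labelled MS2 coat protein was measured on designed RNA switches transcribed on-chip from Illumina sequencing clusters. The protein rose in twofold steps from 0.7 or 1.5 nM to 3 µM, with 0.8–1.5 h per step early on and 10–20 min per step later, in 100 mM Tris-HCl pH 7.5, 80 mM KCl, 4 mM MgCl2, without or with constant ligand. Each design's apparent KD is the median of fits to its normalised cluster binding curves.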

Sequence	apparent KD of MS2 coat protein [nM]
AAAUAAAUGACUAAGGAUAUAUCGGAGAAAACAUGAGGAUCACCCAUGUAAUAAUAAAAAGGGUGAUAGAAGGUAGUCAACAAAC [Mod 1 of Pariah 4 by Hyphema in Round 1]	37.3
GAAAAACAUGAGGAUCACCCAUGUAGUAAUAUGGAAGGAUAUACAAAGACGUAAGUCAAAGUAGAAGGUCUAAAAG [Garnet 100]	21.6
GAGGACAUAGUACAGGAUAUAUGAAUAGUUACAUGAGGAUCACCCAUGUGCAUUUAUAUGCGCACAUAGAAGGGUGGUAGUUAUC [SameState2 Malc#29]	38.8

system: MS2 coat protein; experiment: apparent KD of MS2 coat protein, switch ON state; designed switch direction (-1 OFF switch, 1 ON switch): -1; higher = weaker reporter binding; details: FMN input: 0 or 200 uM; Eterna round: R93 (includes R88 designs)
Outline: as §1

Sequence	apparent KD of MS2 coat protein [nM]
AGAAUACAUGAGGAUCACCCAUGUGAGGAUAUAUGAAGAAAAAGAAAAGAAAAGAAACAUAGAAGGCACAAAAG [EX 1 May 16]	16.1
AAAACACAUGAGGAUCACCCAUGUGAGGAUAUGCAUAAAAAAAAAAAAAAAAAAAAAUGCAGAAGGCACAUAAA [jn_camden]	21
GAUCAGCUAGGAUAUACAUUAAUCCGAUAUGAGAAGAAAGAACAUGAGGAUCACCCAUGUAGAAGGAGCCAGUA [Ridigeer]	40.2
GGAAAACAUGAGGAUCACCCAUGUAAGGAUAUGCAAAAAAGGAUAUAGAAGGAAAAAAGCAGAAGGUACAAAGG [salish99-ex1-23]	27.1
AAAAAGGCAGGAUAUACAAAAAAAAAAAAAGAGGAGGAGGGACAUGAGGAUCACCCAUGUAGAAGGGCCAAAAA [William Edward Burghardt 'W. E. B.' Du Bois]	35.4
AUUAUGUAAGGAUAUGUACGAACAACAAAACAAAUAACGGUACAGAAGGUACAUGAGGAUCACCCAUGUAUAAA [May 71]	23.6
AAAUGACAUGAGGAUCACCCAUGUCAGGAUAUGACUUGAAAAAAAAAAAAAAAACAUGUCAGAAGGGACAUGGA [Design 51: Sub-opt G]	22.8
AUCUACCUAGGAUAUACAUGAGGAUCACCCAUGUACAGAUACAACUAGGGAAACACACGUAGAAGGAGGUAGAU [JR_Exc003_Sub1207]	15.6
AAAAAUCGAGGAUAUACAUGAGGAUCACCCAUGUAAAAAAAAAAAAAGGGAAAAAAAAGUAGAAGGCGAAAAAA [Sekhemre-Heruhirmaat Intef VII]	58
ACUUAUGAAGGAUAUACUAGCAACAUGCACUCAACACACACACAUGAGGAUCACCCAUGUAGAAGGUCAAACAU [JR_Exc002_Sub1206]	23.2
AAGAAGUUAGGAUAUACAAAAUAAAAGAAAAGAAAGAAAGAACAUGAGGAUCACCCAUGUAGAAGGGACAAGAA [Nubkaure Amenemhat II]	59.2
ACUAACAGAGGAUAUACUAACAAACCUCAAACAUACAUCAAACAUGAGGAUCACCCAUGUAGAAGGCUGAAACU [JR_Exc002_Sub005]	26.7
CUCAAGUAAGGAUAUGUAAGAAAAGAAGAGAAAGAAAAGAAACAGAAGGUACAUGAGGAUCACCCAUGUAAGAA [EteRNA is fun!]	30.4
AAAAAGUGAGGAUAUACGGUGAGGAGUAGACACAACCUGGCGUAGAAGGCACAUGAGGAUCACCCAUGUCCAAA [EX4 Malc#13]	37.3
AACUGACAUGAGGAUCACCCAUGUCAGGAUAUGACUUGAUAGAAAAAAAAAUAUCAUGUCAGAAGGGACAUGGG [Design 56 :P Sub-opt I]	21.4
AAGAGUAGAGGAUAUACAUGAGGAUCACCCAUGUAAUCCAGAUAAGGAAGCAUGGCGUGUAGAAGGCUGCAUGA [MOD of Nando (MS2 Riboswitches- Exclusion 3)]	28.2
AGAAAACAUGAGGAUCACCCAUGUCAGGAUAUCCUGCGGUGAUACACACCGCGUUGUCGGAGAAGGGACAGGGA [Tiesesmari]	65.6
AAGAAACAUGAGGAUCACCCAUGUGAGGAUAUUCAAAAGAAAAGAAAAGAAAGAAGAAGAAGAAGGCACAAAGG [Neferkamin]	24.7
AGCUAGCGAGGAUAUACGAACAUGUCAAAAGACGUGAAGGGACAUGAGGAUCACCCAUGUAGAAGGCGCUAGCA [JL 74% mod 5]	41.1
AAAAAACAUGAGGAUCACCCAUGUCAGGAUAUUUCUAAAAAAAAAAAAAAAAAAAAUGAAAGAAGGGACAAAAA [excalibur 6]	58

Sequence	apparent KD of MS2 coat protein [nM]
AGUCUGAGAGGAUAUACAUGGGAAAAAAAAGUAAGAUCCCUACAUGAGGAUCACCCAUGUAGAAGGCUCUGACA [Ex2 Design 143: Sub-opt 7]	27.4
AACAGGACAGGAUAUACAUGAGGAUCACCCAUGUAGGAAUUAAGCAGAGUACCAAACAGUAGAAGGGUCAUGGA [Ruby 27]	33.3
AAGAAGCUAGGAUAUACAUGAGGAUCACCCAUGUAAAAGAAAGAGGGAAAAGAGAAAAGUAGAAGGAGCAAGAA [Cleopatra I]	27.8
AAAACGUGAGGAUAUGCACCAAAAAAGGUAAAACGGGUACGACAUGAGGAUCACCCAUGUAGAAGGCACGAAAA [Frodo Flailing 10 - Jieux - Exclusion 2]	46
AAAGGACGAGGAUAUACAUGAGGAUCACCCAUGUAAAAAACAUAACAAAAGAACUUAUGUAGAAGGCGUCCAAA [69%, Moding Meechl, 2]	54.4
AUCAUGUAAGGAUAUAAAAGAAAAGAAAAGAAAGAAAAGAAUUAGAAGGUACAUGAGGAUCACCCAUGUAAGAA [EteRNA is fun!]	30.3
AGUUGGCGAGGAUAUACAUGAGGAUCACCCAUGUGAGAGAAUAAAGUGAGAAAGAAAAGUAGAAGGCGCUCACA [JL Lego Mod 16]	60.3
GAAAAGUGAGGAUAUUCGGAUAGGAAAACGAAAACCUAUCCGAAGAAGGCACAUGAGGAUCACCCAUGUGAAAG [Mat - Exaclusion 4 - Eli mod - D43]	28
GGAAAGUGAGGAUAUGCAUAACAAACACAAACACAAACAAAGCAGAAGGCACAUGAGGAUCACCCAUGUAAACA [Exclusion 4 Willow]	23.5
GAAAAGUCAGGAUAUGCAGAAAAAAAAACGAAAAAAAAACUGCAGAAGGGACAUGAGGAUCACCCAUGUUAAAA [Mat - Exclusion 4 - Mayanna - D127]	41.5
UCCUCACAUGAGGAUCACCCAUGUGAGGAUAUGUACAUCAGGAAAAAAAAACUGAUGUACAGAAGGCACAUGGA [Design 9: Super Stable G-C 2]	15.9
AGGGAACAUGAGGAUCACCCAUGUGAGGAUAUGCUAUGGAAAUAAAAAAUAAAACAUAGCAGAAGGCAUAAAAA [Mat - Exclusion 1 - Eli mod - D39]	47.6
AUAAAUCGAGGAUAUACAUGAGGAUCACCCAUGUAAAAAAAAAAAAAAUCCUCAGGAAGUAGAAGGCGAAAUAA [JR_Exc003_Sub018]	11.7
AAGAAAGGAGGAUAUACAAGAAAGAAAGAAAAGAAAAGAAAACAUGAGGAUCACCCAUGUAGAAGGCCUUAGAA [EteRNA is fun!]	26.9
AAAAAACAUGAGGAUCACCCAUGUAAGGAUAUGCGAAAAUAAAAUAAAAUAAAAUAAAGCAGAAGGUACAAAAG [Mat - Exclusion 1 - Eli mod - D3]	28.8
AAAAAGGUAGGAUAUACAUGAGGAUCACCCAUGUGAAAAGAAAAUAAGAAAAGAAAGUGUAGAAGGACCAAAAA [JL JSci Mod In the Red]	33
AAGAAGAUAGGAUAUACAAAAUAAAAGAAAAGAAAGAAAGAACAUGAGGAUCACCCAUGUAGAAGGAUCAAGAA [Sehetepibre Amenemhat I]	25
AAGAACUCAGGAUAUACAUGAGGAUCACCCAUGUAAAAGAAAGAAAAGGGAAAGAAAAGUAGAAGGGAGAAGAA [Neferkheperure-waenre Amenhotep IV]	32.7
AAUAACAGAGGAUAUACAAAAAUAAAAGGAAACAAAAGAAAACAUGAGGAUCACCCAUGUAGAAGGCUGAAUAA [Tetraloop BlockHead]	19.4
ACAUGUACAGGAUAUACGUGGAAAAAAAAAAAAAAAAAACUACAUGAGGAUCACCCAUGUAGAAGGGUACAUGA [Ex2 Design 194: Random 12C]	26.5
